B1: mRNA-splicing (parent)
chain: AGUUGCUGCUGGGAGCUCCAGCACAGUGAAAUGGACAGAAGGGCAGAGCAA

Variants of: B1
Experiment: exon inclusion enrichment index; higher = more inclusion; WT1 exon 5 minigene, HEK293

Point of comparison: G5C C6G U7C U10C A14U, “exon inclusion enrichment index” value 1.05. Against it:
- G5C C6G U7C U10C A40G G41C — higher, 3.83
- G5C C6G U7C U10C A14G — higher, 1.93
- G5C C6G U7C U10C G12U G13C — lower, 0.741
- G5C C6G U7C U10C G12U G13A — lower, 0.404
- G5C C6G U7C U10C G12U G13U — lower, 0.206
- G5C C6G U7C U10C C44G — higher, 4.42
- G5C C6G U7C U10C C44A — higher, 4.17
- G5C C6G U7C U10C C44U — higher, 1.47
- G5C C6G U7C U10C G28A A29U — higher, 1.28
- G5C C6G U7C U10C G28A A29G — higher, 2.1
- G5C C6G U7C U10C G28A A29C — higher, 2.29
- G5C C6G U7C U10C A47U G48C — higher, 2.42
- G5C C6G U7C U10C A47U G48U — higher, 3.16
- G5C C6G U7C U10C A47U G48A — higher, 3.03
- G5C C6G U7C U10C A37G G38U — higher, 1.81
- G5C C6G U7C U10C A37G G38C — higher, 3.22
- G5C C6G U7C U10C A37G G38A — higher, 2.92
- G5C C6G U7C U10C C44G A45C — higher, 5.06
- G5C C6G U7C U10C C44G A45U — higher, 3.36
- G5C C6G U7C U10C C44G A45G — higher, 1.17
- G5C C6G U7C U10C A35U C36G — lower, 0.445
- G5C C6G U7C U10C A35U C36A — lower, 0.0112
- G5C C6G U7C U10C A35U C36U — lower, 0.0671
- G5C C6G U7C U10C A39G A40C — higher, 3.86
- G5C C6G U7C U10C A39G A40G — lower, 0.367
- G5C C6G U7C U10C A39G A40U — lower, 0.671
- G5C C6G U7C U10C G26U U27G — higher, 3.98
- G5C C6G U7C U10C G26U U27A — higher, 2.22
- G5C C6G U7C U10C G26U U27C — higher, 4.3
- G5C C6G U7C U10C A30C A31G — higher, 4.15
- G5C C6G U7C U10C A30C A31C — higher, 3.86
- G5C C6G U7C U10C A30C A31U — higher, 3.41
- G5C C6G U7C U10C C16A U17A — higher, 4.02
- G5C C6G U7C U10C C16A U17C — higher, 4.04
- G5C C6G U7C U10C C16A U17G — higher, 3.25
- G5C C6G U7C U10C G33A G34U — lower, 0.979
- G5C C6G U7C U10C G33A G34A — lower, 0.795
- G5C C6G U7C U10C G33A G34C — lower, 0.988
- G5C C6G U7C U10C A47C G48C — higher, 2.99
- G5C C6G U7C U10C A47C G48U — higher, 2.62
- G5C C6G U7C U10C A47C G48A — higher, 1.78
- G5C C6G U7C U10C G26A U27G — higher, 3.56
- G5C C6G U7C U10C G26A U27C — higher, 4.94
- G5C C6G U7C U10C G26A U27A — higher, 3.45
- G5C C6G U7C U10C G28U A29C — higher, 2.89
- G5C C6G U7C U10C G28U A29G — higher, 3.24
- G5C C6G U7C U10C G28U A29U — higher, 1.08
- G5C C6G U7C U10C A37U G38A — higher, 1.78
- G5C C6G U7C U10C A37U G38C — higher, 2.27
- G5C C6G U7C U10C A37U G38U — higher, 1.52
- G5C C6G U7C U10C A20U — higher, 3.58
- G5C C6G U7C U10C A20G — lower, 0.887
- G5C C6G U7C U10C A20C — higher, 3.4
- G5C C6G U7C U10C A20U G21A — higher, 2.15
- G5C C6G U7C U10C A20U G21U — higher, 2.35
- G5C C6G U7C U10C A20U G21C — higher, 2.93
- G5C C6G U7C U10C G11U G12A — higher, 1.11
- G5C C6G U7C U10C G11U G12C — higher, 1.54
- G5C C6G U7C U10C G11U G12U — higher, 1.49
- G5C C6G U7C U10C C18A C19U — lower, 0.321
- G5C C6G U7C U10C C18A C19A — higher, 1.63
- G5C C6G U7C U10C C18A C19G — higher, 1.5
- G5C C6G U7C U10C G33C — higher, 3.55
- G5C C6G U7C U10C G33U — higher, 1.79
- G5C C6G U7C U10C G33A — lower, 0.609
- G5C C6G U7C U10C A31U U32A — lower, 0.77
- G5C C6G U7C U10C A31U U32G — higher, 2.24
- G5C C6G U7C U10C A31U U32C — higher, 3.76
- G5C C6G U7C U10C C18U C19G — higher, 2.78
- G5C C6G U7C U10C C18U C19A — lower, 0.76
- G5C C6G U7C U10C C18U C19U — lower, 0.197
- G5C C6G U7C U10C A45U G46A — higher, 2.95
- G5C C6G U7C U10C A45U G46U — higher, 1.75
- G5C C6G U7C U10C A45U G46C — higher, 2.33
- G5C C6G U7C U10C A29U A30G — higher, 3.83
- G5C C6G U7C U10C A29U A30U — higher, 1.81
- G5C C6G U7C U10C A29U A30C — higher, 3.05
- G5C C6G U7C U10C A40C G41C — higher, 3.53
- G5C C6G U7C U10C A40C G41U — higher, 1.83
- G5C C6G U7C U10C A40C G41A — higher, 1.9
- G5C C6G U7C U10C A31G U32G — higher, 2.67
- G5C C6G U7C U10C A31G U32A — higher, 5.21
- G5C C6G U7C U10C A31G U32C — higher, 4.5

Source: the RNAGym collection of RNA variant scans (doi:10.1101/gr.219683.116)
